Tested on: Escherichia coli TOP10
Test: shrunken log2 fold change of peptide-encoding DNA abundance (4.5 h post-induction vs induction); higher = less antimicrobial activity (less host growth inhibition)
Settings: time post-induction: 4.5 h; library: site-saturation at positions 5, 18, 19, 20
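Further: peptides expressed intracellularly from a pBAD plasmid library in pooled LB shake-flask culture, induced with 0.3% L-arabinose, DNA abundance read by NGS, three biological replicates, DESeq2 with apeglm shrinkage.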

Row | Sequence | shrunken log2 fold change
1 | RRIRFRPPRLPRPRPRPAMAPRP | 0.0902
2 | RRIRFRPPRLPRPRPRPANSPRP | -0.448
3 | RRIRFRPPRLPRPRPRPAPLPRP | 0.516
4 | RRIRFRPPRLPRPRPRPARTPRP | 0.332
5 | RRIRFRPPRLPRPRPRPASMPRP | -0.146
6 | RRIRFRPPRLPRPRPRPAWLPRP | 0.231
7 | RRIRFRPPRLPRPRPRPAWMPRP | 0.336
8 | RRIRFRPPRLPRPRPRPCAIPRP | -0.0259
9 | RRIRFRPPRLPRPRPRPCCGPRP | -0.221
10 | RRIRFRPPRLPRPRPRPCCSPRP | -0.139
11 | RRIRFRPPRLPRPRPRPCDIPRP | -0.0737
12 | RRIRFRPPRLPRPRPRPCDKPRP | -0.0972
13 | RRIRFRPPRLPRPRPRPCDLPRP | -0.142
14 | RRIRFRPPRLPRPRPRPCGHPRP | -0.129
15 | RRIRFRPPRLPRPRPRPCGMPRP | -0.24
16 | RRIRFRPPRLPRPRPRPCHNPRP | -0.0447
17 | RRIRFRPPRLPRPRPRPCIKPRP | -0.0867
18 | RRIRFRPPRLPRPRPRPCKDPRP | -0.198
19 | RRIRFRPPRLPRPRPRPCKMPRP | 0.111
20 | RRIRFRPPRLPRPRPRPCKNPRP | 0.0492
21 | RRIRFRPPRLPRPRPRPCLKPRP | -0.148
22 | RRIRFRPPRLPRPRPRPCNVPRP | -0.01
23 | RRIRFRPPRLPRPRPRPCPHPRP | -0.135
24 | RRIRFRPPRLPRPRPRPCPTPRP | -0.0449
25 | RRIRFRPPRLPRPRPRPCTMPRP | -0.462

Row | Sequence | shrunken log2 fold change
26 | RRIRFRPPRLPRPRPRPCVNPRP | -0.121
27 | RRIRFRPPRLPRPRPRPCYLPRP | -0.891
28 | RRIRFRPPRLPRPRPRPCYWPRP | -0.0974
29 | RRIRFRPPRLPRPRPRPDAVPRP | -0.0144
30 | RRIRFRPPRLPRPRPRPDDFPRP | 0.0834
31 | RRIRFRPPRLPRPRPRPDDYPRP | -0.0193
32 | RRIRFRPPRLPRPRPRPDESPRP | -0.0167
33 | RRIRFRPPRLPRPRPRPDFHPRP | -0.287
34 | RRIRFRPPRLPRPRPRPDGDPRP | 0.0613
35 | RRIRFRPPRLPRPRPRPDGTPRP | -0.256
36 | RRIRFRPPRLPRPRPRPDHIPRP | -0.00578
37 | RRIRFRPPRLPRPRPRPDHKPRP | -0.406
38 | RRIRFRPPRLPRPRPRPDKPPRP | 0.0269
39 | RRIRFRPPRLPRPRPRPDKWPRP | 0.0538
40 | RRIRFRPPRLPRPRPRPDLCPRP | -0.0489
41 | RRIRFRPPRLPRPRPRPDMDPRP | -0.107
42 | RRIRFRPPRLPRPRPRPDNKPRP | -0.853
43 | RRIRFRPPRLPRPRPRPDNVPRP | -0.336
44 | RRIRFRPPRLPRPRPRPDPTPRP | 0.0215
45 | RRIRFRPPRLPRPRPRPDQEPRP | -0.0176
46 | RRIRFRPPRLPRPRPRPDQFPRP | -0.221
47 | RRIRFRPPRLPRPRPRPDQNPRP | -0.203
48 | RRIRFRPPRLPRPRPRPDRDPRP | -0.119
49 | RRIRFRPPRLPRPRPRPDRFPRP | 0.042
50 | RRIRFRPPRLPRPRPRPDRGPRP | 0.0145

Row | Sequence | shrunken log2 fold change
51 | RRIRFRPPRLPRPRPRPDSAPRP | -0.102
52 | RRIRFRPPRLPRPRPRPDSQPRP | -0.271
53 | RRIRFRPPRLPRPRPRPDSRPRP | 0.391
54 | RRIRFRPPRLPRPRPRPDVIPRP | 0.0834
55 | RRIRFRPPRLPRPRPRPDVYPRP | -0.32
56 | RRIRFRPPRLPRPRPRPDWTPRP | 0.039
57 | RRIRFRPPRLPRPRPRPDYPPRP | -0.111
58 | RRIRFRPPRLPRPRPRPDYTPRP | -0.02
59 | RRIRFRPPRLPRPRPRPECAPRP | 0.724
60 | RRIRFRPPRLPRPRPRPECNPRP | 0.0687
61 | RRIRFRPPRLPRPRPRPECSPRP | 0.411
62 | RRIRFRPPRLPRPRPRPEFDPRP | -0.193
63 | RRIRFRPPRLPRPRPRPEFLPRP | 0.0354
64 | RRIRFRPPRLPRPRPRPEFTPRP | 1.75
65 | RRIRFRPPRLPRPRPRPEFVPRP | 0.0629
66 | RRIRFRPPRLPRPRPRPEHAPRP | 0.243
67 | RRIRFRPPRLPRPRPRPEHSPRP | -0.00202
68 | RRIRFRPPRLPRPRPRPEIKPRP | 0.058
69 | RRIRFRPPRLPRPRPRPEKEPRP | -0.0104
70 | RRIRFRPPRLPRPRPRPEKQPRP | -0.0262
71 | RRIRFRPPRLPRPRPRPEPGPRP | 0.534
72 | RRIRFRPPRLPRPRPRPEPKPRP | 0.415
73 | RRIRFRPPRLPRPRPRPEQAPRP | -0.0421
74 | RRIRFRPPRLPRPRPRPEREPRP | 0.292
75 | RRIRFRPPRLPRPRPRPETCPRP | -0.0911

Row | Sequence | shrunken log2 fold change
76 | RRIRFRPPRLPRPRPRPETPPRP | 0.752
77 | RRIRFRPPRLPRPRPRPEVTPRP | -0.0331
78 | RRIRFRPPRLPRPRPRPEWHPRP | -0.28
79 | RRIRFRPPRLPRPRPRPEWVPRP | -0.0753
80 | RRIRFRPPRLPRPRPRPEWWPRP | 0.0105
81 | RRIRFRPPRLPRPRPRPEWYPRP | -0.361
82 | RRIRFRPPRLPRPRPRPEYGPRP | -0.621
83 | RRIRFRPPRLPRPRPRPFAHPRP | -0.0794
84 | RRIRFRPPRLPRPRPRPFATPRP | -0.0942
85 | RRIRFRPPRLPRPRPRPFAVPRP | -0.354
86 | RRIRFRPPRLPRPRPRPFDLPRP | -0.352
87 | RRIRFRPPRLPRPRPRPFDQPRP | -0.291
88 | RRIRFRPPRLPRPRPRPFFCPRP | -0.206
89 | RRIRFRPPRLPRPRPRPFFDPRP | -0.065
90 | RRIRFRPPRLPRPRPRPFFMPRP | -0.153
91 | RRIRFRPPRLPRPRPRPFFSPRP | -0.59
92 | RRIRFRPPRLPRPRPRPFFVPRP | -0.161
93 | RRIRFRPPRLPRPRPRPFGQPRP | -0.288
94 | RRIRFRPPRLPRPRPRPFGVPRP | -0.166
95 | RRIRFRPPRLPRPRPRPFHNPRP | -0.622
96 | RRIRFRPPRLPRPRPRPFHWPRP | -0.336
97 | RRIRFRPPRLPRPRPRPFITPRP | -0.918
98 | RRIRFRPPRLPRPRPRPFKAPRP | -0.11
99 | RRIRFRPPRLPRPRPRPFKHPRP | -0.2
100 | RRIRFRPPRLPRPRPRPFKNPRP | -0.46

Row | Sequence | shrunken log2 fold change
101 | RRIRFRPPRLPRPRPRPFKQPRP | -0.242
102 | RRIRFRPPRLPRPRPRPFNAPRP | -0.415
103 | RRIRFRPPRLPRPRPRPFQFPRP | -0.253
104 | RRIRFRPPRLPRPRPRPFQKPRP | -0.00162
105 | RRIRFRPPRLPRPRPRPFRTPRP | -0.444
106 | RRIRFRPPRLPRPRPRPFTMPRP | -0.817
107 | RRIRFRPPRLPRPRPRPFTVPRP | -0.246
108 | RRIRFRPPRLPRPRPRPFVAPRP | -0.0081
109 | RRIRFRPPRLPRPRPRPFVPPRP | -0.668
110 | RRIRFRPPRLPRPRPRPFWIPRP | -0.357
111 | RRIRFRPPRLPRPRPRPFWVPRP | -0.0435
112 | RRIRFRPPRLPRPRPRPFYLPRP | -0.787
113 | RRIRFRPPRLPRPRPRPGCKPRP | -0.222
114 | RRIRFRPPRLPRPRPRPGCRPRP | 0.00327
115 | RRIRFRPPRLPRPRPRPGFDPRP | 0.0857
116 | RRIRFRPPRLPRPRPRPGFVPRP | 0.126
117 | RRIRFRPPRLPRPRPRPGGEPRP | 0.271
118 | RRIRFRPPRLPRPRPRPGGWPRP | 0.654
119 | RRIRFRPPRLPRPRPRPGHHPRP | -0.561
120 | RRIRFRPPRLPRPRPRPGHNPRP | -0.409
121 | RRIRFRPPRLPRPRPRPGHPPRP | -0.0866
122 | RRIRFRPPRLPRPRPRPGLYPRP | -0.171
123 | RRIRFRPPRLPRPRPRPGNAPRP | 0.0998
124 | RRIRFRPPRLPRPRPRPGNLPRP | -0.13
125 | RRIRFRPPRLPRPRPRPGPGPRP | 0.676

Row | Sequence | shrunken log2 fold change
126 | RRIRFRPPRLPRPRPRPGSKPRP | -0.43
127 | RRIRFRPPRLPRPRPRPGSVPRP | -0.147
128 | RRIRFRPPRLPRPRPRPGTAPRP | 0.0678
129 | RRIRFRPPRLPRPRPRPGTTPRP | -0.032
130 | RRIRFRPPRLPRPRPRPGVEPRP | 0.112
131 | RRIRFRPPRLPRPRPRPGVGPRP | 0.358
132 | RRIRFRPPRLPRPRPRPGVLPRP | 0.0194
133 | RRIRFRPPRLPRPRPRPGVMPRP | 0.238
134 | RRIRFRPPRLPRPRPRPGVSPRP | 0.323
135 | RRIRFRPPRLPRPRPRPGWNPRP | 0.0411
136 | RRIRFRPPRLPRPRPRPHAWPRP | -0.126
137 | RRIRFRPPRLPRPRPRPHCSPRP | 0.0308
138 | RRIRFRPPRLPRPRPRPHCTPRP | -0.268
139 | RRIRFRPPRLPRPRPRPHDEPRP | 0.099
140 | RRIRFRPPRLPRPRPRPHERPRP | 0.0652
141 | RRIRFRPPRLPRPRPRPHFAPRP | 0.0808
142 | RRIRFRPPRLPRPRPRPHGDPRP | 0.0644
143 | RRIRFRPPRLPRPRPRPHIDPRP | -0.335
144 | RRIRFRPPRLPRPRPRPHIGPRP | -0.482
145 | RRIRFRPPRLPRPRPRPHKFPRP | -0.5
146 | RRIRFRPPRLPRPRPRPHKYPRP | -0.411
147 | RRIRFRPPRLPRPRPRPHMFPRP | -0.21
148 | RRIRFRPPRLPRPRPRPHNHPRP | -0.835
149 | RRIRFRPPRLPRPRPRPHNQPRP | -0.75
150 | RRIRFRPPRLPRPRPRPHQGPRP | -0.0419

Source: the supplement of paper PMC9112550, “Optimization of the antimicrobial peptide Bac7 by deep mutational scanning” (BMC Biology, 2022)
